First the molecules themselves.
T1: HAdV-C5 hexon labeled with AlexaFluor594 (human adenovirus C5 (HAdV-C5), UniProt P04133 1-952, AlexaFluor594 label (sites not given))
T1 chain: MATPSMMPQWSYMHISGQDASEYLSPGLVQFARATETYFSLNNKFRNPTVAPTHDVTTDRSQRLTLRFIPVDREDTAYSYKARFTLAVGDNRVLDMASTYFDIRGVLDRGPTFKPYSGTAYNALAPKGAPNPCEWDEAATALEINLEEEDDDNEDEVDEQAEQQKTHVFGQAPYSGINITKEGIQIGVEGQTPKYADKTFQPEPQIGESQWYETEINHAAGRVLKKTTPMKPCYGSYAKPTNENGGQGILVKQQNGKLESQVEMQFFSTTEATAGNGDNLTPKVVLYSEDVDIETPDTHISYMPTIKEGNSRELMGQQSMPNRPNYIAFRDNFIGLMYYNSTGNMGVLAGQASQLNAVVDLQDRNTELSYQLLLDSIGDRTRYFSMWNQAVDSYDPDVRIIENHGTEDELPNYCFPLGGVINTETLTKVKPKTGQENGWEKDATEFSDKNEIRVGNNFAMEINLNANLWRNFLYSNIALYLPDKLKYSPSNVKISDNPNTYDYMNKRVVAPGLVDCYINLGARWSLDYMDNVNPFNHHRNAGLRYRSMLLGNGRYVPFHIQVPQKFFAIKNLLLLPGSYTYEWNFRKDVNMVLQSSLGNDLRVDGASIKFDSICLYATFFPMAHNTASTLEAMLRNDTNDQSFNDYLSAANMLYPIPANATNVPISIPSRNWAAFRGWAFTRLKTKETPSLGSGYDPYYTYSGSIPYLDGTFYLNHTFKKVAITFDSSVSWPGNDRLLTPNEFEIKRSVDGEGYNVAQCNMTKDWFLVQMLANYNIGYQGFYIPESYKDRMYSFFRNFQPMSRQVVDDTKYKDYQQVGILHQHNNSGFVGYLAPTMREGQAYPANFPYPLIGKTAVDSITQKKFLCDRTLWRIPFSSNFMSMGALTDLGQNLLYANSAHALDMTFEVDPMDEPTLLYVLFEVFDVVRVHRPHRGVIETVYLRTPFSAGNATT

B1: hLF mut3 (K28A) (natural protein)
chain: GRRRSVQWCAVSQPEATKCFQWQRNMRAVRGPPVSCIKRDSPIQCIQAIAENRADAVTLDGGFIYEAGLAPYKLRPVAAEVYGTERQPRTHYYAVAVVKKGGSFQLNELQGLKSCHTGLRRTAGWNVPIGTLRPFLNWTGPPEPIEAAVARFFSASCVPGADKGQFPNLCRLCAGTGENKCAFSSQEPYFSYSGAFKCLRDGAGDVAFIRESTVFEDLSDEAERDEYELLCPDNTRKPVDKFKDCHLARVPSHAVVARSVNGKEDAIWNLLRQAQEKFGKDKSPKFQLFGSPSGQKDLLFKDSAIGFSRVPPRIDSGLYLGSGYFTAIQNLRKSEEEVAARRARVVWCAVGEQELRKCNQWSGLSEGSVTCSSASTTEDCIALVLKGEADAMSLDGGYVYTAGKCGLVPVLAENYKSQQSSDPDPNCVDRPVEGYLAVAVVRRSDTSLTWNSVKGKKSCHTAVDRTAGWNIPMGLLFNQTGSCKFDEYFSQSCAPGSDPRSNLCALCIGDEQGENKCVPNSNERYYGYTGAFRCLAENAGDVAFVKDVTVLQNTDGNNNEAWAKDLKLADFALLCLDGKRKPVTEARSCHLAMAPNHAVVSRMDKVERLKQVLLHQQAKFGRNGSDCPDKFCLFQSETKNLLFNDNTECLARLHGKTTYEKYLGPQYVAGITNLKKCSTSPLLEACEFLRK
B2: human lactoferrin (hLF), wild type (natural protein)
chain: B1 chain with A28K
B3: hLF mut4 (R30A) (natural protein)
chain: B1 chain with A28K, R30A
B4: hLF mut5 (R24S/R27A/K28A/R30A) (natural protein)
chain: B1 chain with R24S, R27A, R30A
B5: hLF mut7 (N673A/S678A) (natural protein)
chain: B1 chain with A28K, N673A, S678A
B6: hLF mut8 (E687A/K691A) (natural protein)
chain: B1 chain with A28K, E687A, K691A
B7: hLF mut1 (R24S) (natural protein)
chain: B1 chain with R24S, A28K
B8: hLF mut2 (R27A) (natural protein)
chain: B1 chain with R27A, A28K
B9: hLF mut6 (K277S/K280A/K285S) (natural protein)
chain: B1 chain with A28K, K277S, K280A, K285S

Where a chain is given by its changes, count along the chain named. Names and notes keep the numbering of the source.

Here are results for 9 molecules from PMC10949841 (2024).

In the experiment the target is T1, HAdV-C5 hexon labeled with AlexaFluor594. In words: MST.
For orientation: Kd means the constant that tells how readily two partners part at equilibrium. Read a high Kd as lower affinity. On to B1, for which the affinity, expressed as Kd, was 125 nM.
B2 showed a dissociation constant Kd of 117 nM.
The molecule B3 registered a Kd of 207 nM. Compared with the last molecule, the Kd is about 1.8-fold higher.
The same measure for B4: 602 nM; for B5: 207 nM; for B6: 370 nM.
The value for B7 was 247 nM; that for B8 was 167 nM.
The value for B9 was 584 nM.
